# Experimental data reported in a protein production outcome set (Wang et al. 2014).
# Experiment: label from the status in PepcDB records
row,Sequence,protein production
1,MSTPSPALFFNTVNAYQRSAAIKAAVELNVFTAISQGIESSQSLAQKCQTSERGMRMLCDYLVIIGFMTKQAEGYRLTSDSAMFLDRQSKFYVGDAIEFLLSPMITNGFNDLTAAVLKGGTAISSEGTLSPEHPVWVQFAKAMSPMMANPAQLIAQLVNENKIEPLKVLDISASHGLFGIAVAQHNPNAEIFGVDWASVLEVAKENARIQGVASRYHTIAGSAFEVDYGNDYDLVLLPNFLHHFDVATCEQLLRKIKTALAVEGKVIVFDFIPNSDRITPPDAAAFSLVMLATTPNGDAYTFAEYESMFSNAGFSHSQLHSLPTTQQQVIVAYK,not failed
2,MSTPTPDTDVEQVGLANTAFYEAMERGDFETLSSLWLTPADLGVDEEYHDPADAGVVSCVHPGWPVLSGRGEVLRSYALIMANTEYIQFFLTDVHVSVTGDTALVTCTENILSGGPPPDDSDELGPLVGQLVVATNVFRRTPDGWKLWSHHASPVLAETGAEEGDESPD,not failed
3,MSTRWLLLAAFAAGAALFSSFLKALFFAACLACAFRPLSRRLEAWRGPLVAAGLTTALAGMCLVIPVAVVGSLAAPQAVQGLAVLDGLRESNWFTSPEAQQLVDDIDARLRDLPGLEGGLRGLARNAAGILGTAARTALAGGVGLAGGALNAVLQGFIVLMLIFVFTAYARHIQRFALALLPMPRAMLDRCVTAFRGAVVGVLAGVVLVAAIQGVLCGIGFAVAGVPQAAFWGFIAAMVAPIPVVGTMAVWIPACAWLWFAGKTTAAIGLVLWSAIIVSGSDNILRPIFLKTGIEAPIALIFLAIICGLAAFGPMGLLLGPVLLALGLQLAREGLPGAPGVSGVSGAVEPRE,failed
4,MSTSAIDPVSFSLYAKDFTRFAQELGASFERYGFAVLSDYDLDQARIDAAVDSAKAFFALPVETKKQYAGVKGGARGYIPFGVETAKGADHYDLKEFWHMGRDLPPGHRFRAHMADNVWPAEIPAFKHDVSWLYNSLDGMGGKVLEAIATYLKLERDFFKPTVQDGNSVLRLLHYPPIPKDATGVRAGAHGDINTITLLLGAEEGGLEVLDRDGQWLPINPPPGCLVINIGDMLERLTNNVLPSTVHRVVNPPPERRGVPRYSTPFFLHFASDYEIKTLQNCVTAENPDRYPESITADEFLQQRLREIKLA,not failed
5,MSTSDSCYNTGYILRICAIAALGGILFGYDTAVISGAIGSLTSYFHLSPAETGWAVSCVVVGCVIGSFSAGYLSKRFGRKKSLMVSALLFTISAVGTSLSYTFTHFVIYRIIGGLAVGLAATVSPMYMSEVSPKNMRGRALSMQQFAIVFGQILIFYVNYKIASIAADTWLIELGWRYMFAAGIIPCILFCILVFLIPESPRWMMMIGREEETLKILTKISNEEHARHLLADIKTSLQNDQLNAHQKLNYRDGNVRFILILGCMIAMLQQVTGVNVMMYYAPIVLKDVTGSAQEALFQTIWIGVIQLIGSIIGAMIMDKMGRLSLMRKGTIGSIIGLLLTSWALYSQATGYFALFGMLFFMIFYALSWGVGAWVLISEIFPNRMRSQGMSISVGFMWMANFLVSQFFPMINENPYLLSHFHGAFPMWIFAICCIFSYFFICRYLPETKGISLEKMESVVLAKRRKKLQPIQTERYSD,failed
6,MSTSFTMIGGEGPNSYREHSKYQGALVIAAKEKINEAISTKLDIDFTSNLVNIADFGCSSGPNTFTAVQTLIDAVENKYKKESNIEGIEFQVFFNDSSNNDFNTLFKTLPPARLYFASGVPGSFFGRVLPKNSLHVGVSSYSLHFVSKVPKEIKDRDSLVWNKDIHCSGSSKEVVKLYLGQYKIDVGSFLTARAQELVSGGLLLLLGSCRPTGVQMFETVEGMMIDFIGSSLNEIANQGLIDQQKLDTFKLPIYAPNVDELKQIIEDNKCFTIEAFEKISHAKGEYPLDPEYLTSAFKVTVGGSVASLFGQDGMEKTYELVKEKTQEMLPQIAKAKPGMQYLIVLRRN,failed
7,MSTSLTIRLVAEADWPALHALDQIIWTKKNTPAEIQPLSLAAYQEKMKDETIFVAISGQQLAGFIEVHPPTSLAAHQKQWLLSIGVSPDFQDQGIGGSLLSYIKDMAEISGIHKLSLRVMATNQEAIRFYEKHGFVQEAHFKEEFYINGHYCDDYQYAYFIEK,not failed
8,MSTSPADTARYNRFVADLFGMMAYGELSAFERFSADARYSPTLHDRAVLGRIAVVEFRHYELVSARLEAMGIDAEDAMLPFQAAVDYFHSRTRPADWYESLMKAYVIDTVSADFYRAISRYVDAGTRDVIEQIQASDETTEVLRERLRSALADDPRLASRLALWGRRLLGEALTQAQRVSYEHAFLGSLIGGEDSAAAKELVSGLIAGLAEKHSKRMTQLGLTG,not failed
9,MSTVETPVYVPRTVVHKFGGTSVADADCYRHVTRLLLAREETVQVTIVSAMKGVTDTLIALAEQAANHSPDWQVLWQQTRTRHCDAAQALLGEHAATLQDWLNTRFNELHEMLVALSVIGMLPSEVLDRLQGLGEVYSAQLLGHYLQSQGEDCVVLDARQVLVVSPGEFGAEVDWATSAQHLAHWRMQHPQRRVVVTGFVASDRTGRAITLGRNGSDYSGAIFAALFEADELHIWTDVDGVMSADPRVVPDAVQLDALSYDEACELAYFGAKVVHPQTMSPVMKRGVPIIIRNTFQPGHPGTRITADSVVSGSVKGLTLSPGLAVLNLEGTGLIGVPGTAERVFAALRNARLSVVMISQGSSEHSICCLVHQTEAERARDALLYAFAHELAIGHVQRVQLTNNISVLAAVGDGMAGHLGVAARLFESLRRAHVNILAIAQGSSERNISVAIDSQQATKALRAAHAAFWLSPQTFSIGVIGPGHVGEALLDQLCAAQQQLLSKANLDLRLRAIVSRRRMLLDERGLGSDWRHAFAAAPEAVDLDAFTAHLQAAHLPHAVIIDCSGSAEVADRYADWLAAGIHVVTPNKQAGSGPLHRYHAIRAAADASGARFRYEATVGAGLPVITTLRDLMDTGDSVTSIEGIFSGTLAWLFNKYDGSVPFSQLIAQARAMGYTEPDPRDDLSGVDVARKLVILARDAGRDISLEDVAVESLVPETLCQLSVADFMERLNEIDATFAERLAAAKQRGCVLRYVAQLSPGHVPSVSLIELPSDHAFVNLRLTDNVVQFTTRRYSENPLIVQGPGAGPEVTAAGVFADLLRVAAGEGARL,failed
10,MSTVNGANIQSEEQHTGGCSAGCSGGSTGGSTDGSTGGNTQQGCSCDTHDEQRDGSVAAQTFGEEGPVKTLGRIGSKLVVLSGKGGVGKSTVAVNLAVGLARAGRKVGLLDVDVHGPSVPRLLGLTGTRPMIGEDAMYPVGWRNNLRVMSLGFFLPDPEQAVIWRGPVKMGLIRHFLTEVRWGDLDHLVVDCPPGTGDEPLSVLQLLGTDAQAVIVTTPQGVAVDDVRRSVGFCRELGNPILGIVENMGGYVCPKCGELTPLFPAGGGEALAAEQGVTFLGRIPLHPDLTSAGDAGRSLYEADAAHPIVRALAPIVERAAATLHASDIRHESTTGPQSEAAPGTGKTAATMPTAPTRNESCAPATNHPDTNGDTTMKIAIPVAGDVLCQHFGHCERFALIDVDPATGSVTGRNDVTPPPHEPGLLPVWLSEKGANLVIAGGMGARARALLEERGVKVLIGAPAAAPEAIVAAHMAGTLTLGANTCDH,failed
11,MSTYTARLGGRTHSFPSLAALLAAASPERSGDRLAGLAADSAEARVAARWALAEVPLARFLAEPVIPYEDDDVTRLIVDTHDARAFAPVAGLCVGEFREWLLSDAADAGSLAALAPGLTPEMVAAVSKLMGNADLVAVARKARVVTAFRSTIGLPGRLATRLQPNHPTDDPAGVAAALLDGLLLGSGDAVIGINPATDSPKAVRDLLELLDGVIRRYAIPTQSCVLCHVTTSIDLMERGAPVDLVFQSIAGTQAANASFGVTLGLLDEAYDAARGLGRGTAGQNALYFETGQGSALSANAHHGVDQQTVEARAYAVARRYDPLLVNTVVGFIGPEYLYDGRQILRAALEDHFCGKLLGLPMGLDICYTNHADADDDDIATMLTMLGVAGASFVICTPGGDDIMLNYQSASYHDALYLREVLGLRPAPEFEDWLSRIGLLDDAGAIRDVTGTAHPLTAIGRELAA,failed
12,MSVADSYFDELFRNNDDPWAFKQRWYERRKRALTLAALPRERYRAIFEPGCANGELSADLAERCDMLVCCDTSTQAVELARQRLADVPHARVVQARLPHQWPAGQFDLIVFSELGYYLDAADLHRLIDCALAALSPDGQLLACHWRPDIEGCPLNAQAVHAILAERLSMHRLFSHHEQDFLLDLWSRDGTSVAELEHHHHHH,not failed
13,MSVDAVEIETLRKTVEDYFCFCYGKALGKSTVVPVPYEKMLRDQSAVVVQGLPEGVAFKHPENYDLATLKWILENKAGISFIIKRPFLEPKKHVGG,not failed
14,MSVEAAKNARELLLKEYRAVLSTHSKKWPGFPFGSVVPYCLDAEGRPLILISRIAQHTHNLQADPRCSMLVGERGAEDIQAVGRLTLLAEARQLAEEEVAAAAERYYRYFPESADYHRVHDFDFWVLQPVQWRFIGGFGAIHWLAAERVPLANPFAGEAERGMVEHMNSDHAAAIAHYVELAGLPAHAAAQLAGIDTEGFHLRIGQGLHWLPFPAACGNPGAVRQALVQLARAERWPTVEPEQG,not failed
15,MSVEQLNQLNIEELIITLENVLKILKQYSKVSNSSITFKEFVDYWFEAYASTAVKPSTQKRYRQLLKPALRAIGNKPLNKVKPLDIQNIYIALAGTQSNCTILKLHRLLHEIFKHAQMWEYISDNPVKKVVPPTPEKKVFDVWDVETAKRFLEIIKDEPIYYPALIALHTGMRAGEILSLKWCDVNFETRVISIVKSERKNRGLKTVNLKTKTSKRAVYMNDILYKELKNLYEITKPKPDDFVCPRLPTGNLTVNYLSRKFKKLVKKHNFPLIRFHDLRHTFATLMLSLGVNTKIVAEILGHSDIKLTADTYSHVLPTMQEEAMKEFVKLWK,failed
16,MSVFSGFPASPPDAILNLTVLYNADTNPKKVNLGVGAYRDESGKPWILPAVKEAEAIISSDLSKYNKEYPPVAGFPLFLEAAQFLMFGKDSKAAQEGRIASCQSLSGTGSLHIGFEFLHLWMPKAEFYMPSTTWPNHYGIYDKVFNKLKVPYKEYTYLRKDGELEIDFSNTKKDIQSAPEKSIFLFHACAHNPSGIDFTEAQWKELLPIMKEKKHIAFFDSAYQGFATGSFEADAFAVRMFVDAGVEVLVAQSFSKNFGLYGERIGCLHVVHAGVEGSVEKNKALSAAMVSGMTLQIRKTWSMSAIHGAYIVQVIVHDKRLLQMFYDNVKEMSARIHRMRSLLHASLAKRKTPGPGSKGTWDHILTAIGMFTFTGLTPEHVDYLKEKWSIYLVKAGGRMSMCGLTESNCDYVAEAIHDAVTKLPFKK,not failed
17,MSVGIDSLDNDHKKLIAILAQLMSAKNEKLGQDDIDVIFERLEGYCLSHFAREEALLAKIDYKQLEAHKLSHQAFIKKIPQLKEQWFAKVTESEAVKDKIILFLQQWLIKHILEEDLDYVPAIHCFQEFSRYEKDKKAKHPWLRFFSIKLSHCLILSHRVLITTLLPVAAVLLLCFFILKDNYQRYDSISKVLGLNSVIEQVNGISHSLQAERGLSTGYTSSNYRSFAKQLRQRRKSTDAKIQYFLWLLEQSANQEIKVSVSRYMTNFQEIVANLSRHRMHLDQKIVGFEETYHAYTQLIGQLLSVSDHLVHIEIGSSHANDISAINAILRYKEFMGQIRAIGMKMAENHQENIYGNVEVSLLIGKQLNTLLIFKNAANSAQKSICGHYCDAFALRQHLESSYLETMQFEDKDVRAARWFKVMSAKVDNLNSVVQRLINEFDGQIYIESQKLKKEGYLIILAMLIFLLVAIFFALVLNYSIISPVRKLTYALNDMSEGQNNIHFNHIDSKDEIGSMQLAFEKLRRKLLQGDVYKATVSQQQKEIKYRKSQQDHFQQLALTDALTGAVNRHHFNEVLDQEIANVNNHGSPLSIMLLDIDHFKSVNDRYGHGVGDEVLVMFYQTCVEAVRSSDVVARIGGEEFVIIMPNTQLVNAQKFAERLRQKIAKLELNIANNQISVTVSIGVSQWQSEYFTNAETFVAHADKSLYQAKNSGRNKVVVAQQ,failed
